One molecule from patent publication US7871610B2, “Antibodies to Tie1 ectodomain” (Dyax Corp., priority 2003, dated 2011) can be followed below.

The target in test [1] is T1, Tie1-EpoR chimeric receptor (UniProt P14753+P35590).
T1 construct: the PCR amplified extracellular part of human Tie1 (bp 37-2316 of X60975); expressed in transfected cells
T1 sequence (P35590+P14753 with tags, fused parts or gaps): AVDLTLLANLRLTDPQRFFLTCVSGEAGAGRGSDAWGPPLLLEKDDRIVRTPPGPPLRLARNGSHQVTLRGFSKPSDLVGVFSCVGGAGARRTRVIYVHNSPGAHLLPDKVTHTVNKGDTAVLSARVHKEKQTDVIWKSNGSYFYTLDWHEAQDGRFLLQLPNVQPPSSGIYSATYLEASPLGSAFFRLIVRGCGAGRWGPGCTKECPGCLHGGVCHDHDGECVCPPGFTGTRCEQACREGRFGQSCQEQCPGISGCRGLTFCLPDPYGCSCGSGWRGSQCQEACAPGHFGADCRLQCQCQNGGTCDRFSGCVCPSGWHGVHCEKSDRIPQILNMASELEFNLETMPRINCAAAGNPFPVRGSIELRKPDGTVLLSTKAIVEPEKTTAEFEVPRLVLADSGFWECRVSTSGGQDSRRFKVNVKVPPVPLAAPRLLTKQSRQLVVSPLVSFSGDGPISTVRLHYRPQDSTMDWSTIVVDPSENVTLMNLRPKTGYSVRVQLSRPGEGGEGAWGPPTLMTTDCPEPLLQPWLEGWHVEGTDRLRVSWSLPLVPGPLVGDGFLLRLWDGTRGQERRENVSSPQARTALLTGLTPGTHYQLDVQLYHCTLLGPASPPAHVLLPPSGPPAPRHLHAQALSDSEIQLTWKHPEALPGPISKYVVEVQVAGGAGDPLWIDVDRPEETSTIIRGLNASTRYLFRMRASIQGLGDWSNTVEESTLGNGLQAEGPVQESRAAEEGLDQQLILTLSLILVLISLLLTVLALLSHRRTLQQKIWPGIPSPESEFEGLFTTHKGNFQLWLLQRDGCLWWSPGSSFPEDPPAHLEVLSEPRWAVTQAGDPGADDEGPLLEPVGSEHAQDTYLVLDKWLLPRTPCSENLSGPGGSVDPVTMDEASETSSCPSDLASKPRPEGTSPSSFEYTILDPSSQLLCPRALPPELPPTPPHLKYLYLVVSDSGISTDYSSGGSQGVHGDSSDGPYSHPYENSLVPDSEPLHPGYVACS
Description: Ba/F3 bioassay (Tie1/EpoR chimeric BaF3 cell assay), MTT viability. It is filed as cell-based, human. The settings on record: 100 ng/ml E3 IgG together with 100 (1:1) or 500 (1:5) ng/ml of the other antibody. An excerpt:
To generate Tie1-EpoR expressing Ba/F3 cells for the bioassay, Ba/F3 pre-B cells were stably transfected with a nucleic acid that expresses chimeric receptor containing the extracellular domain of human Tie1 fused with the transmembrane and cytoplasmic domains of the mouse erythropoietin receptor. The nucleic acid used was a Tie1-EpoR chimeric cDNA in a pEF-BOS expression vector. The nucleic acid encoding the chimeric receptor was constructed by cloning the PCR amplified extracellular part of human Tie1 (bp 37-2316 of X60975) as EcoRI-BglII fragment into mEpoR-pcDNA vector. The cDNA encoding for the chimeric receptor consisting of the extracellular part of Tie1 fused with the transmembrane and intracellular domains of EpoR was subcloned into the pEF-BOS expression vector. Vector was linearized and co-transfected into Ba/F3 cells with pcDNA3.1(+) Zeo vector (Invitrogen). Stable cell pools were generated by selection with 250 μg/ml Zeocin. The expression of Tie1/EpoR fusion protein in several clones was analyzed by Western blotting with an antibody against EpoR.
To perform the assays, Ba/F3 cells expressing the Tie 1-EpoR chimera were split in 96-well microtiter plates at 50 000 cells/well in the presence of the indicated concentrations of anti-Tie1 antibodies. As controls, Zeocin resistant pools not expressing the Tie1-EpoR were used. After 48 h, the viability of the cells was determined by adding MTT (3-(4,5-dimethylthiazol-2-yl)-2,5-diphenyl tetrazolium bromide (Sigma), 0.5 mg/ml), followed by further 2 h of culture, addition of an equal volume of cell lysis solution (10% SDS, 10 mM HCl) and incubation overnight at 37° C. Absorbance was measured at 540 nm.
Although no ligand for Tie1 has been identified, we used the following efficient screening method for Tie1-binding proteins. Interleukin-3 dependent pre-B-lymphocyte (Ba/F3) cells were transfected with a construct that expresses a Tie1-EpoR fusion protein. Since Ba/F3 cells are IL-3 dependent, they die unless IL-3 is provided. However, Tie-EpoR receptor expressing Ba/F3 cells can survive and proliferate if the medium contains a Tie1-binding protein, either a natural ligand or an artificial mimetic. Cell survival can be quantitated, e.g., by colorimetric MTT-assay, which measures mitochondrial activity.

The target of another test is Tie1 (Homo sapiens, UniProt P35590). Description: Immunofluorescence staining of Tie1-transfected COS1 cells. The test is classed as binding. Conditions: COS1 cells transfected with pcDNA3-Tie1-V5; antibodies 5 μg/ml. Here is the method: COS1 cells on the glass coverslips were transiently transfected with pcDNA3-Tie1-V5 (the V5-epitope was added to the 3′ terminus of pcDNA3-Tie1) (1 μg DNA per 10 cm cell culture plate) using FUGENE™ 6 (Roche) according to manufacturer's instruction and incubated for 48 h before staining. Cells were fixed in 4% paraformaldehyde for 10 min at 4° C. If required, the cells were permeabilized with 0.2% Triton X-100 in PBS for 5 min. Unspecific binding sites were blocked by incubation with 1% BSA in PBS for 30 min. The cells were then stained with anti-Tie1 antibodies (5 μg/ml) and anti-V5 antibodies for 1 h at room temperature, followed by incubation with FITC— conjugated anti-human antibodies (DAKO, 40 μg/ml) and TRITC-conjugated anti-mouse antibodies (DAKO, 15 μg/ml) for 30 min. Hoechst 33258 fluorochrome (Sigma, 0.5 μg/ml) was used for the staining of the nuclei.
Sequence of Tie1 (P35590 22-1138): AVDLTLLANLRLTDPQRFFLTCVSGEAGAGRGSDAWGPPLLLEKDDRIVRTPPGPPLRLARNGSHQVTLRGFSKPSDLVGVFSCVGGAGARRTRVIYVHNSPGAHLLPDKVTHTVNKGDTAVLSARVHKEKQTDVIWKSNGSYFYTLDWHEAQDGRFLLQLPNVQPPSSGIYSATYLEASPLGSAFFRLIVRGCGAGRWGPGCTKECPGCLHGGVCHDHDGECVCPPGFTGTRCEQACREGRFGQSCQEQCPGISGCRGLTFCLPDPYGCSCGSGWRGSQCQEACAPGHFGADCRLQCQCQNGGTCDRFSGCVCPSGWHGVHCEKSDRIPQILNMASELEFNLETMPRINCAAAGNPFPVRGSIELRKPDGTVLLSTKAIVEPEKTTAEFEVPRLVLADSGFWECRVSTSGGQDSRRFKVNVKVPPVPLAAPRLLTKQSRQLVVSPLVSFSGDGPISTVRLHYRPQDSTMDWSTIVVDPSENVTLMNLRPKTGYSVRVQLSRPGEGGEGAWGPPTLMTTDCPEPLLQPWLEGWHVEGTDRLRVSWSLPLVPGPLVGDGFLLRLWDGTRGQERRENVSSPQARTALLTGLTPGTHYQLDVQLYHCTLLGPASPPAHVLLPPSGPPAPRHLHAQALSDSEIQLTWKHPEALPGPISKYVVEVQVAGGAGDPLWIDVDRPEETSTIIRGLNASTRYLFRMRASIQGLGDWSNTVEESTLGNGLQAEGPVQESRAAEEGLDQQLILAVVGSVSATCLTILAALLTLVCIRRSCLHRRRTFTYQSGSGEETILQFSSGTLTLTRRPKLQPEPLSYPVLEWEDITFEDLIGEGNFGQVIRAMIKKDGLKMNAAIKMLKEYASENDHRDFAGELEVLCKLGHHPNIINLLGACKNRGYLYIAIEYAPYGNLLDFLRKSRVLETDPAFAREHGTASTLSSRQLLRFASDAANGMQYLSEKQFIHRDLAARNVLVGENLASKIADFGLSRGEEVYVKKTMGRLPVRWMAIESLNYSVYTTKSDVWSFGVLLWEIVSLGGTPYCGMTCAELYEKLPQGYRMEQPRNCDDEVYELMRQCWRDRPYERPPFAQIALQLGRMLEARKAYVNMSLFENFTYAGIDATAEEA

B1: P-B1: anti-Tie1 antibody; VH SEQ ID NO:20, VL SEQ ID NO:22 (antibody, V domains shown)
VH: EVQLLESGGGLVQPGGSLRLSCAASGFTFSRYPMVWVRQAPGKGLEWVSVISPSGGQTFYADSVKGRFTISRDNSKNTLYLQMNSLRAEDTAVYYCARGVLTTAFDIWGQGTMVTVSSASTKGPSVFPLAPSSKAPLGAQRPWAAWSR
VL: QDIQMTQSPSSLSASVGDRVTITCRASQNINSYLNWYQQKPGQAPKLLIYAASNLETAVPSRFSGSGSGTDFTLTISSLQPEDFATYYCQQFNTYPLTFGGG
modifications: Synthetically generated peptide
Turning to B1, the “effect on the survival effect of E3 IgG in Tie1-EpoR Ba/F3 assay” value in test [1] is reported as “inhibited the viability effect of E3 IgG to some extent”. For the same molecule, the “IF: Tie1-transfected” value with Tie1 is “weak”.
